The text below walks through data of US20220185876A1 (ATARGA, published 2022).

A word on the EC50: it is the midpoint of the concentration-response curve. A lower EC50 goes with a more potent agent.

Test [1] addresses T1, human FGF23 (human, UniProt Q9GZV9 25-251).
T1 construct: also called recombinant human FGF-23; Fibroblast Growth Factor 23
T1 sequence: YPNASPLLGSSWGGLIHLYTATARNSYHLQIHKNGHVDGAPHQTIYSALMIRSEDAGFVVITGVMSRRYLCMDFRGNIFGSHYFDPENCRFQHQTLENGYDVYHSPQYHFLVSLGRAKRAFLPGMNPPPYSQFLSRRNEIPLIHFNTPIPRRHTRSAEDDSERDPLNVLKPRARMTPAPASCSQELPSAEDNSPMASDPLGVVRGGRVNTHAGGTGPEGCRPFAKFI
Kind of test: ELISA, binding to human FGF23 (A450 against log mAb concentration). (In general: ELISA stands for enzyme-linked immunosorbent assay.)

For test [2], the target named is T1, human FGF23. The test is described as above. This is another data set of the same source.
In test [3] the target is T1, human FGF23. As to the kind of experiment: cell-based or functional assay.
Test [4] concerns the target T1, human FGF23. Kind of test: cell-based or functional assay. This is another data set of the same source.

Read-outs that look alike come from different tables or passages of the source.

B1: Exc23 (antibody, V domains shown)
VH: EVQLVQSGAEVRKPGASVKVSCKASGYTFTNHYMHWVRQAPGQGLEWMGIINPISGSTSNAQKLQGRVTFTRDTSANTAYMELSGLIPEDTAIYYCARDIVDAFDFWGQGTLVTVSS
VL: DIQMTQSPSSLSASVGDRVTITCKASQGISSALVWYQQKPGKAPKLLIYDASSLQTGVPSRFSGSGSGTDFTFTISSLQPEDIATYYCQQFNDYFSFGPGTKLEIK
notes: Monoclonal anti-FGF23 antibody
In turn, B1 came in with an EC50 with human FGF23 [1] of 0.0295 mg/L.

B2: ExA43 (antibody, V domains shown)
VH: EVQLVQSGAEVRKPGASVKVSCKASGYTFTNHYMHWVRQAPGQGLEWMGIINPISGSTSNAQKLQGRVTFTRDTSANTAYMELSGLIPEDTAIYYCAREIVDAFDFWGQGTLVTVSS
VL: AIQLTQSPSSLSASVGDRVTITCRASQGISSALVWYQQKPGQAPRLLIYDASSLESGIPARFSGSGSGTDFTLTISSLEPEDFAVYYCQQFNDYFTFGQGTKLEIK
notes: as for B1
In turn, B2 registered an EC50 with human FGF23 [2] of 0.0278 mg/L.

B3: ExC17 (antibody, V domains shown)
VH: EVQLVQSGAEVRKPGASVKVSCKASGYTFTNHYMHWVRQAPGQGLEWMGIINPISGSTSNAQKLQGRVTFTRDTSANTAYMELSGLIPEDTAIYYCARDIVDAFDFWGQGTLVTVSS
VL: DIQLTQSPSSLSASVGDRVTITCRASQGISSALVWYQQKPGQAPRLLIYDASSLQSGIPARFSGSGSGTDFTLTISSLEPEDFAVYYCQQFNDLFTFGQGTKLEIK
notes: as for B1
Consider B3, for which the “IC50, neutralisation of recombinant human FGF23-stimulated proliferation of NIH-3T3 cells (fluorescence)” value (shortened to “IC50, neutralisation”) with human FGF23 [3] turned out to be 0.2 mg/L. This molecule also showed an EC50 with human FGF23 [2] of 0.0181 mg/L.

B4: Exc23.5 (antibody, V domains shown)
VH: EVQLVQSGAEVRKPGASVKVSCKASGYTFTNHYMHWVRQAPGQGLEWMGIINPISGSTSNAQKLQGRVTFTRDTSANTAYMELSGLIPEDTAIYYCARDIVDAFDFWGQGTLVTVSS
VL: AIQMTQSPSSLSASVGDRVTITCKASQGISSALVWYQQKPGKAPKLLIYDASSLQTGVPSRFSGSGSGTDFTFTISSLQPEDIATYYCQQFNDYFSFGPGTKLEIK
notes: as for B1
In the test with human FGF23 [1], B4 displayed an EC50 of 0.0273 mg/L.

B5: ExA28 (antibody, V domains shown)
VH: EVQLVQSGAEVRKPGASVKVSCKASGYTFTNHYMHWVRQAPGQGLEWMGIINPISGSTSNAQKLQGRVTFTRDTSANTAYMELSGLIPEDTAIYYCARDIVDAFDFWGQGTLVTVSS
VL: AIQMTQSPSSLSASVGDRVTITCRASQGISSALVWYQQKPGKAPKLLIYDASSLESGVPSRFSGSGSGTDFTFTISSLQPEDIATYYCQQFNDYFTFGPGTKLEIK
notes: as for B1
In the case of B5, the “IC50, neutralisation” value with human FGF23 [3] was found to be 0.316 mg/L. This molecule also registered an EC50 with human FGF23 [2] of 0.0248 mg/L.

B6: Exc23.4 (antibody, V domains shown)
VH: EVQLVQSGAEVRKPGASVKVSCKASGYTFTNHYMHWVRQAPGQGLEWMGIINPISGSTSNAQKLQGRVTFTRDTSANTAYMELSGLIPEDTAIYYCARDIVDAFDFWGQGTLVTVSS
VL: DIQMTQSPSSLSASVGDRVTITCRASQGISSALVWYQQKPGKAPKLLIYDASSLQTGVPSRFSGSGSGTDFTFTISSLQPEDIATYYCQQFNDYFSFGPGTKLEIK
notes: as for B1
In the test with human FGF23 [1], B6 showed an EC50 of 0.0266 mg/L.

B7: ExA60 (antibody, V domains shown)
VH: EVQLVQSGAEVRKPGASVKVSCKASGYSFTNHYMHWVRQAPGQGLEWMGIINPNSGSTSNAQKLQGRVTFTRDTSANTAYMELSGLIPEDTAIYYCARDIVDAFDYWGQGTLVTVSS
VL: AIQMTQSPSSLSASVGDRVTITCRASQGISSALVWYQQKPGKAPKLLIYDASSLESGVPSRFSGSGSGTDFTFTISSLQPEDIATYYCQQFNDYFTFGPGTKLEIK
notes: as for B1
As to B7, the “IC50, neutralisation” value with human FGF23 [3] amounted to 0.5 mg/L. The same molecule registered an EC50 with human FGF23 [2] of 0.0233 mg/L.

B8: Exc23.2 (antibody, V domains shown)
VH: EVQLVQSGAEVRKPGASVKVSCKASGYTFTNHYMHWVRQAPGQGLEWMGIINPISGSTSNAQKLQGRVTFTRDTSANTAYMELSGLIPEDTAIYYCARDIVDAFDFWGQGTLVTVSS
VL: DIQMTQSPSSLSASVGDRVTITCKASQGISSALVWYQQKPGKAPKLLIYDASSLQSGVPSRFSGSGSGTDFTFTISSLQPEDIATYYCQQFNDYFSFGPGTKLEIK
notes: as for B1
Take B8: the EC50 with human FGF23 [1] came out at 0.0262 mg/L.

B9: Exc23.1 (antibody, V domains shown)
VH: EVQLVQSGAEVRKPGASVKVSCKASGYTFTNHYMHWVRQAPGQGLEWMGIINPISGSTSNAQKLQGRVTFTRDTSANTAYMELSGLIPEDTAIYYCARDIVDAFDFWGQGTLVTVSS
VL: DIQMTQSPSSLSASVGDRVTITCKASQGISSALVWYQQKPGKAPKLLIYDASSLETGVPSRFSGSGSGTDFTFTISSLQPEDIATYYCQQFNDYFSFGPGTKLEIK
notes: as for B1
Turning to B9, the “IC50, neutralisation” value with human FGF23 [4] is 1.63 mg/L. The molecule further displayed an EC50 with human FGF23 [1] of 0.0332 mg/L.

B10: Exc23.3 (antibody, V domains shown)
VH: EVQLVQSGAEVRKPGASVKVSCKASGYTFTNHYMHWVRQAPGQGLEWMGIINPISGSTSNAQKLQGRVTFTRDTSANTAYMELSGLIPEDTAIYYCARDIVDAFDFWGQGTLVTVSS
VL: DIQMTQSPSSLSASVGDRVTITCKASQGISSALVWYQQKPGKAPKLLIYDASSLQTGVPSRFSGSGSGTDFTFTISSLQPEDIATYYCQQFNDYFTFGPGTKLEIK
notes: as for B1
Regarding B10, the “IC50, neutralisation” value in the test with human FGF23 [4] came to 1.29 mg/L. The molecule further had an EC50 with human FGF23 [1] of 0.0286 mg/L.

B11: ExA11 (antibody, V domains shown)
VH: QVQLVQSGAELKKPGASVKVSCKASGYTFTNHYMHWVRQAPGQGLEWMGIINPISGSTTYAQKFQGRVTMTRDTSSSTAYMDLSRLTSDDTAVYYCARDIVDAFDFWGQGTTVTVSS
VL: AIQLTQSPSSLSASVGDRVTITCRASQGISSALVWYQQKPGQAPRLLIYDASSLESGIPARFSGSGSGTDFTLTISSLEPEDFAVYYCQQFNDYFTFGQGTKLEIK
notes: as for B1
Take B11: in the test with human FGF23 [3], the “IC50, neutralisation” value was determined as 0.411 mg/L. The response with human FGF23 [2] was half-maximal at 0.0267 mg/L (EC50).

B12: ExA35 (antibody, V domains shown)
VH: QVQLLESGAVLARPGTSVKISCKASGYTFTNHYMHWVKQRPGQGLEWIGIINPITGSSSNAQKFQGRVTITRDTSTSTVFMELSSLRSEDTAVYYCARDIVDAFDFWGQGTLVTVSS
VL: AIQLTQSPSSLSASVGDRVTITCRASQGISSALVWYQQKPGQAPRLLIYDASSLESGIPARFSGSGSGTDFTLTISSLEPEDFAVYYCQQFNDYFTFGQGTKLEIK
notes: as for B1
Turning to B12, the “IC50, neutralisation” value with human FGF23 [3] was determined as 0.355 mg/L. The molecule further returned an EC50 with human FGF23 [2] of 0.0238 mg/L.

B13: ExC50 (antibody, V domains shown)
VH: QVQLLESGAVLARPGTSVKISCKASGYSFTNHYMHWVKQRPGQGLEWIGIINPITGSSSNAQKFQGRVTITRDTSTSTVFMELSSLRSEDTAVYYCARDLVDAFDFWGQGTLVTVSS
VL: DIQLTQSPSSLSASVGDRVTITCRASQGISSALVWYQQKPGQAPRLLIYDASSLQSGIPARFSGSGSGTDFTLTISSLEPEDFAVYYCQQFNDYFTFGQGTKLEIK
notes: as for B1
For the molecule B13, the “IC50, neutralisation” value in the test with human FGF23 [3] amounted to 0.199 mg/L. In the test with human FGF23 [2], this molecule came in with an EC50 of 0.0204 mg/L.
